Publication doi:10.64898/2025.12.10.693482, “Mechanism of NanR transcriptional activation of sialic acid metabolism in Streptococcus pneumoniae” (bioRxiv, 2025)
Substitutions are numbered along the chain they refer to. Numbers in names are those of the source. Where “and” joins values, the source holds several entries; their conditions need not be identical. Equal entries are not always repeated.

Key:
[1] = molecular target: T1, SpNanR D160A (NanR) (Streptococcus pneumoniae, UniProt A0A4M6CQT5, D160A); test: DSF thermal shift (comparable to wild type) and tetramer stabilization by sedimentation velocity; type: binding
T1 construct: gene ybbH; recombinant SpNanR variant
T1 sequence (A0A4M6CQT5 whole entry D160A): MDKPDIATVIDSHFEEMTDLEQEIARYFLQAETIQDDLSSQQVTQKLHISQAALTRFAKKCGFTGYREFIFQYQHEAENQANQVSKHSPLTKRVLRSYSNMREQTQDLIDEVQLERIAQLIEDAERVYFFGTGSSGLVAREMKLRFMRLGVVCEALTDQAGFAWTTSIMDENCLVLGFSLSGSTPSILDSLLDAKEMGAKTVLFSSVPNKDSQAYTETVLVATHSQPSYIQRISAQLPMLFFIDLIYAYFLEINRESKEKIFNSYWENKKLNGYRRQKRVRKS

[2] = molecular target: T2, SpNanR (NanR) (Streptococcus pneumoniae, UniProt A0A4M6CQT5); test: ITC (n = […]), DSF, crystal structures (8TX9, 8V4V), sedimentation velocity; type: binding
T2 construct: gene ybbH; recombinant, full-length SpNanR
T2 sequence (A0A4M6CQT5 entry or part of it): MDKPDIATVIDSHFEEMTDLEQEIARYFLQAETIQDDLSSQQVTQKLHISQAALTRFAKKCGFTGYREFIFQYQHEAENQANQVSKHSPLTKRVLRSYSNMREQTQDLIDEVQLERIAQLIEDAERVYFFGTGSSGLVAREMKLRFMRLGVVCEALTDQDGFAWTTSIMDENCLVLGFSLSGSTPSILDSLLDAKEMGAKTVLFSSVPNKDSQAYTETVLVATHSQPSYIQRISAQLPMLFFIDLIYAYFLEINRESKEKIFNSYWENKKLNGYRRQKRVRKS

[3] = molecular target: the molecule itself; test: AUC; sedimentation velocity, SpNanR 4.3–227.7 μM, no N-acetylmannosamine-6-phosphate, 20 mM Tris-HCl pH 8.0, 300 mM NaCl, 20 °C; weight-averaged s fitted to a dimer-tetramer self-association model (Sedphat); tetramer to dimers
[4] = molecular target: the molecule itself; test: AUC; sedimentation velocity, SpNanR 0.27–153.5 μM, with 2 mM N-acetylmannosamine-6-phosphate, 20 mM Tris-HCl pH 8.0, 300 mM NaCl, 20 °C; tetramer to dimers
[5] = molecular target: the molecule itself; test: SEC-SAXS; small-angle X-ray scattering with in-line size exclusion chromatography, SpNanR without N-acetylmannosamine-6-phosphate
[6] = molecular target: the molecule itself; test: AUC; sedimentation velocity of SpNanR variants and wild type at the same concentration, without N-acetylmannosamine-6-phosphate (Supplementary Figure 14C–E)
[7] = molecular target: SpNanR R56A (Streptococcus pneumoniae, UniProt A0A4M6CQT5 1-283, R56A); test: MST; up to 5 uM protein; MST: 20 mM Tris-HCl pH 8.0, 300 mM NaCl, 0.05% Tween-20, 20 C, 20 nM FAM-DNA, overnight incubation; AUC: 50 nM FAM-DNA, 0.019-5 uM SpNanR, buffer not given in m; details: protein: recombinant; chain copies: 2; label: 5'-6-FAM on sense strand; blunt 18 bp
[8] = molecular target: SpNanR R67A (Streptococcus pneumoniae, UniProt A0A4M6CQT5 1-283, R67A); test: as above; details: protein: recombinant; chain copies: 2; label: 5'-6-FAM on sense strand; blunt 18 bp
[9] = molecular target: SpNanR T18A (Streptococcus pneumoniae, UniProt A0A4M6CQT5 1-283, T18A); test: as above; details: protein: recombinant; chain copies: 2; label: 5'-6-FAM on sense strand; blunt 18 bp

In the case of `CC(=O)N[C@@H]1C(O)O[C@H](COP(=O)(O)O)[C@@H](O)[C@@H]1O` (stereo partly shown) [manNAc-6-P, N-acetylmannosamine-6-phosphate], the “DSF thermal shift (comparable to wild type) and tetramer stabilization by sedime” value [1] is reported as “it still binds N-acetylmannosamine-6-phosphate and that this sufficiently stabilizes the tetrameric form” and the Kd [2] is reported as 20.4 ± 6 µM.

B1: Streptococcus pneumoniae NanR (SpNanR), wild type (natural protein, UniProt A0ACD7PT65 1-283, looked up)
chain: MDKPDIATIIDSHFEEMTDLEQEIARYFLQAETITDDLSSQQVTQKLHISQAALTRFAKKCGFTGYREFIFQYQHQAENQANQVSKHSPLTKRVLRSYSNMREQTQDLIDEIQLERIAQLIEDAERIYFFGTGSSGLVAREMKLRFMRLGVVCEALTDQDGFAWTTSIMDENCLVLGFSLSGSTPSILDSLLDAKEMGAKTVLFTSVPNKNSQTYTETVLVATHSQPSYIQRISAQLPMLFFIDLIYAYFLEINRESKEKIFNSYWENKKLNGYRRQKRVRKS
notes: NanR, RpiR family transcriptional regulator of Streptococcus pneumoniae; recombinant full-length protein; intact mass 32,611 Da; Cloned into pET30ΔSE; Exists in a dimer-tetramer equilibrium; also called SpNanR^WT
B1 was tested, and the Kd [3] was 97 µM, the Kd [4] was < 0.2 µM and the “stoichiometry N” value [5] was 4 and 2.

B2: SpNanR^R148A (natural protein)
chain: B1 chain with R148A
notes: NanR of Streptococcus pneumoniae (WP_000360349.1) with the substitution R148A; Variant of m1; source: E. coli BL21(DE3), purified
B2 was tested, and the “stoichiometry N” value [6] was 2.

B3: SpNanR^D160A (natural protein)
chain: B1 chain with D160A
notes: NanR of Streptococcus pneumoniae (WP_000360349.1) with the substitution D160A; Variant of m1; source: E. coli BL21(DE3), purified
B3 was tested, and the “stoichiometry N” value [6] was 2.

B4: nanE recognition sequence, FAM-labeled (dsDNA)
DNA 1: TCTGAAAGTACTTTTAGA
DNA 2: TCTAAAAGTACTTTCAGA
B4: no binding [7]; no binding [8]; no binding [9].
